Drawing on patent US20180073026, “NOVEL EXPRESSION REGULATING RNA-MOLECULES AND USES THEREOF” (Universität Wien, published 2018), this text covers activity for one molecule.

The target of this data set is RNA polymerase (His6 RNAP; holoenzyme) (Escherichia coli, UniProt P0A7Z4;P0A8V2;P0A8T7;P0A800;P00579 …). The data set can be described thus: in vitro transcription, reduction of rrnB termination vs Rev #5713, purified RNAP only. To be noted: tags: His6 (Nudler Lab) or holoenzyme from Affymetrix; chain copies: 2,1,1,1,1. How it is done:
Transcription reactions were performed in solution. Wild-type E. coli His6 RNAP (Evgeny Nudler Lab) and wild-type E. coli RNAP Holoenzyme (Affymetrix) were used in the assays. […] Then AUC RNA primer (Dharmacon) was added up to 10 μM together with GTP (25 μM) and ATP (25 μM) followed by incubation at 37° C. for 5 minutes. Next, [α-32P]-CTP (800 Ci/mmol, 2 μl, Hartmann Analytic) was added for another 2 min. To minimize RNA degradation 10 U of RNasin® Ribonuclease Inhibitor (Promega) were added to the reaction. For the reactions with Rho and NusG, the purified transcription factors were added in a concentration of up to 0.5 μM to the transcriptional mixtures where indicated, followed by additional incubation at 37° C. for 5 minutes. Chasing reaction was performed with all four NTPs added to a final concentration of 10-50 μM. To prevent re-initiation, rifampicin (Sigma) was added concurrently at this step to a final concentration of 10 μM. At the indicated time points, an aliquot of chase reaction was quenched with 3× Stop Solution, containing 100 mM EDTA, 8M UREA, 0.025% xylenthianol and 0.025% bromophenol blue. The products were separated by 6% denaturing TBE-PAGE (8M urea). […]

B1: RAP #5713 (ssRNA)
RNA: GACAACAUGAGAACAGUUCAGCAGCACUA
Turning to B1, the activity was > 2 fold.
